Reference: patent publication US20130171163

How the values were obtained:
[1] = biological target: VEGFR2 (UniProt P35968)
[2] = biological target: insulin-like growth-factor-1 receptor beta subunit (IGF-1Rβ) (UniProt P08069)
insulin-like growth-factor-1 receptor beta subunit (IGF-1Rβ), sequence (P08069 whole entry, looked up, tested part not stated): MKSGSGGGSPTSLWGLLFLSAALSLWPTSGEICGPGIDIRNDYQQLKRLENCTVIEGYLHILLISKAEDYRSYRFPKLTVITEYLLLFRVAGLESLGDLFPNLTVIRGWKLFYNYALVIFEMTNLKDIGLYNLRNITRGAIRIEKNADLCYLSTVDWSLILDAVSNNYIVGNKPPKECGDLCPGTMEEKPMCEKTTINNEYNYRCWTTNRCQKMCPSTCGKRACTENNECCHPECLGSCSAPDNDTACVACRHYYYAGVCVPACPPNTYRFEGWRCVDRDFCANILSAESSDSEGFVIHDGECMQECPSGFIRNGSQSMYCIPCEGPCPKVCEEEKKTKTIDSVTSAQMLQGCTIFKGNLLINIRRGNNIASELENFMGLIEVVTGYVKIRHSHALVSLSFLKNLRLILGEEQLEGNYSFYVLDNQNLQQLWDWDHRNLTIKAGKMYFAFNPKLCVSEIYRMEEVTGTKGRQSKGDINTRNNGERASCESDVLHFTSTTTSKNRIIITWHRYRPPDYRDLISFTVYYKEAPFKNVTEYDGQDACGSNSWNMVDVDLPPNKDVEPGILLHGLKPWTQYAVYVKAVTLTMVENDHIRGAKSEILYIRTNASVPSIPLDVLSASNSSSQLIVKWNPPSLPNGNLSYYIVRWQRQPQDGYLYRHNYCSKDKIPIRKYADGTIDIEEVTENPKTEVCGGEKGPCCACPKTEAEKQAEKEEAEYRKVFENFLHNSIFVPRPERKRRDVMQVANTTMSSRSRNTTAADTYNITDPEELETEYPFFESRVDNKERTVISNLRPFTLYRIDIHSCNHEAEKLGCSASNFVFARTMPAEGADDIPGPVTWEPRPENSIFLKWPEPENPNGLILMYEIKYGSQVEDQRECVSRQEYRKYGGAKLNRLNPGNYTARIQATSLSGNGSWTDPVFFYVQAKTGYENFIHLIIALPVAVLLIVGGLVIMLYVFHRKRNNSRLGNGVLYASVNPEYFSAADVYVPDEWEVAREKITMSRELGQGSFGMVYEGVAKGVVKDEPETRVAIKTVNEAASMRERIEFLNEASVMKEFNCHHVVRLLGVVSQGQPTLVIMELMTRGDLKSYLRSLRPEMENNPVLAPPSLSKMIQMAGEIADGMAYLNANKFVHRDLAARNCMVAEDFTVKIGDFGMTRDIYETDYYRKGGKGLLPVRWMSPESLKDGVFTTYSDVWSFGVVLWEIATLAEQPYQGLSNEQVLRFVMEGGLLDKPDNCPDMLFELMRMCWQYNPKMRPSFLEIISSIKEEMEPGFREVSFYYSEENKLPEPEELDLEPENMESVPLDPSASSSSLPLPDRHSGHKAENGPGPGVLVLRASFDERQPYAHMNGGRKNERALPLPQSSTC

VEGFR2, sequence (P35968 20-1356): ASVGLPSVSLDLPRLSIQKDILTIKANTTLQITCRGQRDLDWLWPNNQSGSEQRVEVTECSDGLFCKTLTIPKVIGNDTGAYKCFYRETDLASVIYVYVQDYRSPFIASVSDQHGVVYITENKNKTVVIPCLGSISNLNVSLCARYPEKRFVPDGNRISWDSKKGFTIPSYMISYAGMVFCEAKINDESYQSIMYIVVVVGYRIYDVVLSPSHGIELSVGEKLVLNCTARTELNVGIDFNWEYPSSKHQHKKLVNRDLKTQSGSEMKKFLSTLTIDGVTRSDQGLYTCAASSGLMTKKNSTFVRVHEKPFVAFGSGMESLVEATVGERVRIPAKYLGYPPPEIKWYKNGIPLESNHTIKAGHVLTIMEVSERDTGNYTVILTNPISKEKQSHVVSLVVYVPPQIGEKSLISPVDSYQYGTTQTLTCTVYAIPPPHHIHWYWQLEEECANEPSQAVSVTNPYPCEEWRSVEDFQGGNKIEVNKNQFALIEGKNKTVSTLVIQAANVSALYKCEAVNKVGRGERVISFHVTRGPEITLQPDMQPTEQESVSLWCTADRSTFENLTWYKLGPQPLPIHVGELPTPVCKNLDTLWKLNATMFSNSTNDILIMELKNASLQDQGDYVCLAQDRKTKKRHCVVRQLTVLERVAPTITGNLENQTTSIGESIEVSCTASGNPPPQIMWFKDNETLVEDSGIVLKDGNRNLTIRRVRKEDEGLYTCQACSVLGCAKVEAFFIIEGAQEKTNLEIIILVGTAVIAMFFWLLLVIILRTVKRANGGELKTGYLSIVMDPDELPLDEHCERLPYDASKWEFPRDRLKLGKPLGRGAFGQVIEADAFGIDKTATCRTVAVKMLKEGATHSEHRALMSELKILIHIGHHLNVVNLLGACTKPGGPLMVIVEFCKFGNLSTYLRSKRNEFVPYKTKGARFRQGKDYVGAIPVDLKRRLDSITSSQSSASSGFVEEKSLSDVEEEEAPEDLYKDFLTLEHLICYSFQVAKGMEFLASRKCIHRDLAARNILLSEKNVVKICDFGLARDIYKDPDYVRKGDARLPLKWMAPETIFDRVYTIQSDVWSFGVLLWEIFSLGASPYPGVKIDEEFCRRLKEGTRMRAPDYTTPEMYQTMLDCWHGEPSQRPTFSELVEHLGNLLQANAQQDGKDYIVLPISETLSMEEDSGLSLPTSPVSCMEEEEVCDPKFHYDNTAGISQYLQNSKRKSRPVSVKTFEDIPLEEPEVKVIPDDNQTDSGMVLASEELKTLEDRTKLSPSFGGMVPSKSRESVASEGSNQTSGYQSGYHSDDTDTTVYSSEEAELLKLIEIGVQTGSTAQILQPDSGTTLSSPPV

Substance: leukocyte antigen-related protein tyrosine phosphatase (LAR)
- VEGF-induced tyrosine phosphorylation of VEGFR2 in HUVECs overexpressing LAR (AdLAR) [1]: overexpression of LAR had no effect on VEGF-induced tyrosine phosphorylation of VEGFR2 in HUVECs
- IGF-1-induced tyrosine phosphorylation of IGF-1Rβ in HUVECs overexpressing LAR (AdLAR); IP with anti-IGF-1Rβ, Western blot with anti-phosphotyrosine [2]: LAR overexpression inhibited IGF-1-induced tyrosine phosphorylation of IGF-1Rβ in a dose-dependent manner, with maximum inhibition at 2.5 MOI
- IGF-1Rβ autophosphorylation in IGF-1-treated HUVECs after LAR knockdown with siRNA [2]: knockdown of endogenous LAR with LAR-specific siRNA (FIGS. 3A-3B) significantly increased IGF-1Rβ activity, without an apparent effect on IGF-1Rβ expression levels, in HUVEC treated with IGF-1
